Molecular target: Human MET ECD (extracellular domain) containing a FLIS tag (Homo sapiens, UniProt P08581)
Test: cell-based or functional assay

Chain of Human MET ECD (extracellular domain) containing a FLIS tag (P08581 25-932): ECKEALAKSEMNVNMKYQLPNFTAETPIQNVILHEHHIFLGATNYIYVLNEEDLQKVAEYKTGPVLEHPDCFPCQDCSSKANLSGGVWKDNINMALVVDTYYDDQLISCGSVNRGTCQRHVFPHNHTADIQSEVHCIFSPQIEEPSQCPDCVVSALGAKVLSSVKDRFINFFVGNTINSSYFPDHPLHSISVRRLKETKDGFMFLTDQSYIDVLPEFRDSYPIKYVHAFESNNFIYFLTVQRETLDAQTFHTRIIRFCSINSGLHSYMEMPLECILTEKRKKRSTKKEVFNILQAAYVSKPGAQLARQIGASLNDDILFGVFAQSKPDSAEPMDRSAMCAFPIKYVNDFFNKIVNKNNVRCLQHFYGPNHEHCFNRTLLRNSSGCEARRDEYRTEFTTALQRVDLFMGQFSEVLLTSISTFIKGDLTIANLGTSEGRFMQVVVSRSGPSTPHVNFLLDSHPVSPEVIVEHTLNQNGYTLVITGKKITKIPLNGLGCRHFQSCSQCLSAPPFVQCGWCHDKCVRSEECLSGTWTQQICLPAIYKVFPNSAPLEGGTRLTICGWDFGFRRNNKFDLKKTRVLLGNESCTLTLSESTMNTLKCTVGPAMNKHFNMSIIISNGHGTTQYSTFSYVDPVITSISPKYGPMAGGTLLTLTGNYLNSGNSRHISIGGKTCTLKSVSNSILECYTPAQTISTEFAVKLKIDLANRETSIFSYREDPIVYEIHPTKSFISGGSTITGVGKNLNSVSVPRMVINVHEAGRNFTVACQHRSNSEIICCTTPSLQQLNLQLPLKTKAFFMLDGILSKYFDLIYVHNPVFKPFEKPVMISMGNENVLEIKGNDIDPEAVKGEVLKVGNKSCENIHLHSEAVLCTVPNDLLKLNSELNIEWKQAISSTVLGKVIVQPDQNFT

phospho-AKT activity levels in Caki-1 cells (MSD ELISA), various doses of antibody for 15 minutes: > 8 fold
B1: IgG1 MET antibody (variable regions from LY2875358 on human IgG1 constant regions) (antibody, V domains shown)
VH: QVQLVQSGAEVKKPGASVKVSCKASGYTFTDYYMHWVRQAPGQGLEWMGRVNPNRRGTTYNQKFEGRVTMTTDTSTSTAYMELRSLRSDDTAVYYCARANWLDYWGQGTTVTVSS
VL: DIQMTQSPSSLSASVGDRVTITCSVSSSVSSIYLHWYQQKPGKAPKLLIYSTSNLASGVPSRFSGSGSGTDFTLTISSLQPEDFATYYCQVYSGYPLTFGGGTKVEIK

From publication PMC5391116 (PLoS ONE, 2017)
